{"source": "paper PMC2946932", "about": "(PLoS ONE, 2010)", "binders": {"B1": {"name": "Fab AbD1556 (Fab, V domains shown)", "VH": "QVQLVESGGGLVQPGGSLRLSCAASGFTFSNYTLNWVRQAPGKGLEWVSYTSSSGSLTGYADSVKGRFTISRDNSKNTLYLQMNSLRAEDTAVYYCARERWHVRGYFDHWGQGTLVTVSS", "VL": "DIELTQPPSVSVAPGQTARISCSGDSLGSKYVIWYQQKPGQAPVLVIYDDSNRPSGIPERFSGSNSGNTATLTISGTQAEDEADYYCSTFTMSGNGTVFGGGTKLTVL", "notes": "heavy chain of Fab AbD1556 (Gln1 to Phe224, then the Strep-Tag); light chain of Fab AbD1556 (Asp1 to Ala213); Human Fab of the HuCal library; Not biotinylated in the crystal; some residues of PDB 3NH7 are not modelled; source: obtained from AbD-Serotech (Martinsried), recombinant Fab selected from the HuCal phage library"}}, "molecular_target": "T1, extracellular domain of human BMP receptor type IA (BMPR-IAEC), wild type (human, UniProt P36894)", "T1 construct": "numbers count on: the mature protein; In the crystal only Pro34-Val118 were traced; also called BMPR-IA WT; BMPR-IA ectodomain; source: expressed as thioredoxin-fusion protein as described [16], purified", "T1 sequence (P36894 24-152)": "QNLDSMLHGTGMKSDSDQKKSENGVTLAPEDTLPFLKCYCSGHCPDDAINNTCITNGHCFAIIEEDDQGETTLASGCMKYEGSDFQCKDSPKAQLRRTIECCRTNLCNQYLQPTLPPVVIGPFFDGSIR", "assay": "SPR; Biacore 2000, room temperature; biotinylated BMP-2 and Fabs immobilised on a streptavidin-coated CM5 chip; wildtype or mutant BMPR-IAEC as analyte at 1000, 500, 250, 125, 62.5 nM; HBS500 (10 mM HEPES, 500 mM NaCl pH 7.4, 3.4 mM EDTA, 0.005% surfactant P20), 10 µl/min; 1:1 Langmuir model; apparent KD from equilibrium binding and/or kon and koff", "conditions": "both partners purified"}
{"binder": "B1", "values": [{"measurement": "Kd", "value": 20, "unit": "nM"}, {"measurement": "koff", "value": 0.0017, "unit": "s⁻¹"}, {"measurement": "kon", "value": 88000, "unit": "M⁻¹ s⁻¹"}]}
